Results reported in doi:10.1101/2021.04.21.440798 (bioRxiv, 2021).

Target: GFP-T6BP (TAX1BP1 / TRAF6-Binding Protein fused to GFP) (UniProt Q86VP1 1-789)
Test: co-IP

Sequence of GFP-T6BP (TAX1BP1 / TRAF6-Binding Protein fused to GFP) (Q86VP1 whole entry, the tested form may be a part): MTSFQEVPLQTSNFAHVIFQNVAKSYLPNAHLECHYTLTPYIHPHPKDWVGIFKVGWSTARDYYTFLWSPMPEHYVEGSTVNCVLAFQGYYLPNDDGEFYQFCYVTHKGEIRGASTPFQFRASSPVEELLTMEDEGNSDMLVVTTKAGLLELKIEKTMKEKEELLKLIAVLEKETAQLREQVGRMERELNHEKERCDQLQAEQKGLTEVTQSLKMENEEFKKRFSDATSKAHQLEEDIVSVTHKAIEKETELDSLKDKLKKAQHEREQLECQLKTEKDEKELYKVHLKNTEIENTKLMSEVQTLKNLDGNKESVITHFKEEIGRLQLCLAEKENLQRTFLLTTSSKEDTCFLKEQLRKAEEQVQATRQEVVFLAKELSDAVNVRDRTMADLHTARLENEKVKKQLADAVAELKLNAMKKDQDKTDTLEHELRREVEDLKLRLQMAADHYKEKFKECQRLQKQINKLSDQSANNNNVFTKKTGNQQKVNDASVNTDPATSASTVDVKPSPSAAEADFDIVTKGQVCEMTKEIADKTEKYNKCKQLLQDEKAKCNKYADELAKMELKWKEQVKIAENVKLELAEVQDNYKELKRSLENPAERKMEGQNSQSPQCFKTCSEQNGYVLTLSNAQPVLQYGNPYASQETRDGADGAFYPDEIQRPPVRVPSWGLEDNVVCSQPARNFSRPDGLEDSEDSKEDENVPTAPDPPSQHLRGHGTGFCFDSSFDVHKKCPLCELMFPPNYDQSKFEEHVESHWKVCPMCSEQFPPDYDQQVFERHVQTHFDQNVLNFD

fold enrichment over the GFP control: 3 fold
B1: Calnexin (CANX), endogenous (natural protein)
chain: HDGHDDDVIDIEDDLDDVIEEVEDSKPDTTAPPSSPKVTYKAPVPTGEVYFADSFDRGTLSGWILSKAKKDDTDDEIAKYDGKWEVEEMKESKLPGDKGLVLMSRAKHHAISAKLNKPFLFDTKPLIVQYEVNFQNGIECGGAYVKLLSKTPELNLDQFHDKTPYTIMFGPDKCGEDYKLHFIFRHKNPKTGIYEEKHAKRPDADLKTYFTDKKTHLYTLILNPDNSFEILVDQSVVNSGNLLNDMTPPVNPSREIEDPEDRKPEDWDERPKIPDPEAVKPDDWDEDAPAKIPDEEATKPEGWLDDEPEYVPDPDAEKPEDWDEDMDGEWEAPQIANPRCESAPGCGVWQRPVIDNPNYKGKWKPPMIDNPSYQGIWKPRKIPNPDFFEDLEPFRMTPFSAIGLELWSMTSDIFFDNFIICADRRIVDDWANDGWGLKKAADGAAEPGVVGQMIEAAEERPWLWVVYILTVALPVFLVILFCCSGKKQTSGMEYKKTDAPQPDVKEEEEEKEEEKDKGDEEEEGEEKLEEKQKSDAEEDGGTVSQEEEDRKPKAEEDEILNRSPRNRKPRRE
